The values that follow come from paper PMC8426278.

This experiment deals with GST-G1NC_(long) (GST-fused complete cytosolic domain of rat GIRK1, a.a. 1-84, 184-501) (rat) (UniProt P63251). Put plainly: pull-down.

Take “Gβ1(I80N)γ2 (bovine Gβ1 I80N co-translated with bovine Gγ2) (from UniProt P62871 1-340; P63212 1-71) (complex)”: the binding as % of wt Gβγ worked out at 89.6%.
